Patent publication US20160194391A1 (AstraZeneca / MedImmune, published 2016)
Read-outs that look alike come from different tables or passages of the source.

T1: Primate IL-6 (Macaca mulatta, UniProt P51494)
T1 sequence (cytokine, looked up): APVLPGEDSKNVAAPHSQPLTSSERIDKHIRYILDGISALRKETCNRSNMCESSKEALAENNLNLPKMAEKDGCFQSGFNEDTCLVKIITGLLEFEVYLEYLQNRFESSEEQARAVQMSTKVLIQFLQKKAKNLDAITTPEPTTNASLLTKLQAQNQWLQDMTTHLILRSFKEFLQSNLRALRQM

T2: human IL-12 p40 subunit (human, UniProt P29460 23-328)
T2 construct: Coated on ELISA plates
T2 sequence (looked up): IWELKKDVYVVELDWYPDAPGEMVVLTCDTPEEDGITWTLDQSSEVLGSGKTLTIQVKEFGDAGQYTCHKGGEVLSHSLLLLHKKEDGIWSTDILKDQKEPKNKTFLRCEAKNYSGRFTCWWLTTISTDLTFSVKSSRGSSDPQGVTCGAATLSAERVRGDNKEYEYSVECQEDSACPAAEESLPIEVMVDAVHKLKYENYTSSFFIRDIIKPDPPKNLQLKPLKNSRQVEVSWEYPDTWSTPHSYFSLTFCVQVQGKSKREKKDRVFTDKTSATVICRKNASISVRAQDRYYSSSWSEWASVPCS

T3: primate IL-23 (p40:p19 fusion, 6×HIS) (primate)
T3 chain: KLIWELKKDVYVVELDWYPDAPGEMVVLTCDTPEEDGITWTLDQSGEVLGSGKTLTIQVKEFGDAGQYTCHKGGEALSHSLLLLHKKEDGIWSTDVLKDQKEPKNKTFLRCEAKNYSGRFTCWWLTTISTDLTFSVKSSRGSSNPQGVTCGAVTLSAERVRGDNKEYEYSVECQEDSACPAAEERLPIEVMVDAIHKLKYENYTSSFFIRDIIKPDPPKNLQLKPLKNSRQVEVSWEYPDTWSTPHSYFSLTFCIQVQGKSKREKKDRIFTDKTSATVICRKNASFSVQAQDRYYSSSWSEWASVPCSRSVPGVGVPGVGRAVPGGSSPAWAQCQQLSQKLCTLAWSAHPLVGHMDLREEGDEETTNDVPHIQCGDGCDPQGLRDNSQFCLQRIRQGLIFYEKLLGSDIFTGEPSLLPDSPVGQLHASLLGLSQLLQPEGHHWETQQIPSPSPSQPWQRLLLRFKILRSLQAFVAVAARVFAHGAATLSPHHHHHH

T4: human IL-12 (human, UniProt P29459 23-219; P29460 23-328)
T4 construct: Bioassay used Prospec-Tany Cyt-362
T4 sequence (looked up) 1: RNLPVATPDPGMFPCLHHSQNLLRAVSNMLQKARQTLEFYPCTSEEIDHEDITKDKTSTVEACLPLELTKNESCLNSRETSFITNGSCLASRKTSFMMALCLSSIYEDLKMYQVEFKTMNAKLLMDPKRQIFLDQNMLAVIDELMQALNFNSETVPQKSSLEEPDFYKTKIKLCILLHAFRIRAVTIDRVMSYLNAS
T4 sequence (looked up) 2: T2 sequence (looked up)

T5: monkey IL-12 (macaque) (macaque, UniProt P48091 23-219; P48095 23-328)
T5 construct: also called macaque IL-12
T5 sequence (looked up) 1: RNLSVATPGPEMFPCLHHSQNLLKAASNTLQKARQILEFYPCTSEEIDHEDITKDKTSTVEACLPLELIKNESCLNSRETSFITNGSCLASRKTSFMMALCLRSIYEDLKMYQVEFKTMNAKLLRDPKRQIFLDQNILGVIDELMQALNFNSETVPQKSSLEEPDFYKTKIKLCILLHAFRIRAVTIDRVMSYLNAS
T5 sequence (looked up) 2: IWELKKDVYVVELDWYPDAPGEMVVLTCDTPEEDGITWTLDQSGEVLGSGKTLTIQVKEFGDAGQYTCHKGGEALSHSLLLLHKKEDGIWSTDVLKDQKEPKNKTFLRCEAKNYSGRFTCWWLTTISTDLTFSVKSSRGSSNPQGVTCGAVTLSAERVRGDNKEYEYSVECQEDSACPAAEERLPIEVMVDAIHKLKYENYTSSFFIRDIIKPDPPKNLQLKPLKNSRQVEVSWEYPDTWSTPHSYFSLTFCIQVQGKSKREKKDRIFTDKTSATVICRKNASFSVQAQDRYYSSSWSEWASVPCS

B1: 9H4 chimeric mAb (antibody, V domains shown)
VH: QSLEESGGRLVTPGTPLTLTCTASGFSLSSYDMSWVRQAPGKGLEWIGYIYTDTSTYYANWAKGRFSISKTSTTVDLKMTSLTAEDTATYFCAKGSTDYAFDTRLDLWGPGTLVTVSS
VL: YDMTQTPASVEVAMGGTVTIKCQASQSISNELSWYQQKPGQPPKLLIYRTSTLASGVSSRFKGSGSGTEYTLTISGVECADAATYYCQQGYNSNDVDNVFGGGTEVVVVR
notes: Rabbit/human chimeric IgG (human IgG1, kappa); HEK293; also called 9H4 clone
B2: 31A12 chimeric mAb (antibody, V domains shown)
VH: QSLEESGGRLVTPGTPLTLTCTASGFSLSSYWMTWVRQAPGGGLEWIGTIATSSTYYASWAKGRFTISRTSTTVDLKMTSLTTEDTATYFCARGLTTDYDLDLWGPGTLVTVSS
VL: LVMTQTPASVSAAVGGTVTINCQASEDIESYLAWYQQKPGQRPKLLIYSASTLTSGVPSRFKGSGSGKQFTLTISGVQREDAATYYCLGADDTTTVFGGGTKVVVVR
notes: Rabbit/human chimeric IgG (human IgG1, kappa); HEK293; also called 31A12 mAb
B3: 13A8 chimeric mAb (antibody, V domains shown)
VH: QSVEESGGRLVTPGTPLTLTCTVSGIDLSSYDMSWVRQAPGKGLEWIGYIYTDSSTWYANWAKGRFTISKTSSTTVDLKMTSLTTEDTATYFCAKGSTDYAFDTRLDLWGPGTLVTVSS
VL: NIVMTQTPSPVSGAVGGTVTINCQASQSISNELSWYQQKPGQPPRLLIYRASTLTSGVSSRFKGSGAGTQFTLTISGVECADAATYYCQQGYNSNDVDNVFGGGTKVVVVR
notes: HEK293; also called 13A8 clone

How the values were obtained:
human IL-6 [1] = biological target: T6, human IL-6 (human, UniProt P05231 30-212); assay: cell-based or functional assay
Primate IL-6 [2] = biological target: T1, Primate IL-6; assay: cell-based or functional assay
human IL-6 [3] = biological target: T6, human IL-6; assay: SPR (SensiQ Pioneer), mAb captured on protein G, IL-6 as analyte (3×FLAG-IL-6 or IL-6 CYT-213, 1-100 nM), 25 C, 1:1 model
Description: Equilibrium constants for rabbit human chimeric mAbs were determined by binding the mAb to the protein G coated chip followed by binding of each analyte (IL-6 or IL-23) to its respective mAb. In order to minimize mass transfer effects, the surface densities of the mAbs for each analyte were adjusted so that as analyte binding approached saturation its corresponding RU fell between 200 and 300. […] For each binding and dissociation cycle the chip surface was regenerated with 15 uL of 20 mM NaOH (5671-02, Mallinckrodt Baker, Philliphsburg, N.J.). The assay temperature was maintained at 25° C. with an analyte flow rate of 50 μL/min and included a 2 minute association phase and 10-30 minute dissociation phase. The on/off rates (kₐ/kd) and dissociation constants (KD) were determined using the format described above along with pseudo-first-order 1:1 interaction model software (Qdat, ICx Nomadics, Stillwater, Okla.).

human IL-12 p40 subunit [4] = biological target: T2, human IL-12 p40 subunit; assay: ELISA, human IL-12 p40 subunit coated on the plate; antibody concentration not given [Binding to human IL-12 p40]
[5] = biological target: T3, primate IL-23 (p40:p19 fusion, 6×HIS); assay: cell-based or functional assay
human IL-12 [6] = biological target: T4, human IL-12; assay: ELISA, human IL-12 coated on the plate; antibody concentration not given [Binding to Human IL-12]
human IL-12 p40 subunit [7] = biological target: T2, human IL-12 p40 subunit; assay: ELISA, human IL-12 p40 subunit coated on the plate; 13A8 is the anti IL-6 negative control [Binding to human IL-12 p40]
monkey IL-12 (macaque) = biological target: T5, monkey IL-12 (macaque); assay: ELISA, monkey (macaque) IL-12 coated on the plate; 13A8 is the anti IL-6 negative control [Binding to Monkey IL-12]
human IL-12 [8] = biological target: T4, human IL-12; assay: ELISA, human IL-12 coated on the plate; 13A8 is the anti IL-6 negative control [Binding to Human IL-12]
Primate IL-6 [9] = biological target: T1, Primate IL-6; assay: cell-based or functional assay; remark: listed apart in the source
human IL-6 [10] = biological target: T6, human IL-6; assay: cell-based or functional assay; remark: listed apart in the source

Binder	EC50, inhibition of IL-6 induced B9 cell proliferation (human IL-6 [1])	IC50 (read off the curve) (B9 proliferation, OD570-600) (Primate IL-6 [2])	Kd (human IL-6 [3])	koff (human IL-6 [3])	kon (human IL-6 [3])	binding result (human IL-12 p40 subunit [4])	IC50 (read off the curve) (IL-17 from mouse splenocytes, OD450) [5]	binding result (human IL-12 [6])	binding result (human IL-12 p40 subunit [7])	binding result (monkey IL-12 (macaque))	binding result (human IL-12 [8])	IC50 (read off the curve) (B9 proliferation, OD570-600) (Primate IL-6 [9])	EC50, inhibition of IL-6 induced B9 cell proliferation (human IL-6 [10])
B1	0.109 ng/mL	~10 ng/mL	58 pM	4.75e-05 s⁻¹	816000 M⁻¹ s⁻¹	–	–	–	–	–	–	–	–
B2	–	–	–	–	–	binds	~0.2 ng/mL	binds	–	–	–	–	–
B3	–	–	218 pM	0.000138 s⁻¹	633000 M⁻¹ s⁻¹	–	–	–	no binding	no binding	no binding	~0.4 ng/mL	0.034 ng/mL
